Test results reported in paper PMC11215833.

Target: PybHLH3: Nluc (pear 'Red Zaosu' (P. pyrifolia × P. communis))

- dual-luciferase assay, LUC/REN ratio of the PyUFGT promoter activated by PyMYB10 with PybHLH3; ratio of PyMYB107:PyMYB10 from 0:1 (0.48) to 1:1 (0.26) (LUC/REN ratio): 0.26
Substance: PyMYB107 (co-expressed as competitor) (natural protein)
